Measured values: the Human Domainome abundance scans (Beltran et al. 2025)

B1: RanBP-type and C3HC4-type zinc finger-containing protein 1, residues 369 to 411; numbered along this chain, Q9BYM8 (parent)
chain: YHCKTPDCKGWCFFEDDVNEFTCPVCFHVNCLLCKAIHEQMNC
B2: Tripartite motif-containing protein 44, residues 174 to 218; numbered along this chain, Q96DX7 (parent)
chain: VAKRKCPDHGLDLSTYCQEDRQLICVLCPVIGAHQGHQLSTLDEA

Variants of: B1
Test: abundance fitness (aPCA) (normalised: wild type 0, dead -1); higher = more abundant; growth selection in yeast, the domain comes from the species named
Settings: Homo sapiens

Abundance fitness of substitutions, site by site:
A36: R -0.015, F -0.848, V -0.28, C -0.154, W -0.87, N -0.111, I -0.331, S 0.01, G 0.051, T 0.005, P -0.333, D -0.053, E 0.058, Y -0.83, M -0.266, K -0.084, L -0.534
C31: F -0.648, G -0.655, T -0.451, H -0.469, E -0.611, W -0.738, Q -0.521, L -1.02, V -0.76, S -0.438, N -0.532, Y -0.154, K -0.758, D -0.54, M -0.725, R -0.558, A -0.805
N30: L -1.22, H -0.42, P -0.784, S -0.797, T -0.57, G -0.811, I -0.835, Y -0.614, A -1.3, W -0.855, V -1.04, R -0.8, K -0.781, E -0.891, Q -0.788, C -0.777, D -0.79, M -1.16
L32: E -0.366, F -0.407, P -0.525, D -0.531, A -0.231, K 0.037, S -0.295, V -0.167, T -0.015, C -0.27, W -0.417, G -0.369, R 0.026, Q -0.168, Y -0.302, N -0.131, M -0.264
K35: Q -0.026, Y -0.273, L -0.321, D -0.156, C -0.069, F -0.149, S -0.014, W -0.385, E -0.026, T -0.281, H -0.023, M -0.026, P -0.356, G 0.067, R -0.021, A -0.147, V -0.406, I -0.843
C43: S -0.312, T -0.216, E -0.427, K -0.37, Y -0.424, I -0.511, Q -0.357, M -0.507, A -0.372, V -0.396, R -0.323, G -0.29, H -0.23, N -0.511, P -0.211
N42: L -0.196, F -0.415, M -0.101, Q 0.304, K -0.064, W -0.069, C -0.005, D 0.025, H 0.138, T 0.069, G 0.161, R -0.008, E 0.075, P 0.219, S 0.006, Y -0.122, V -0.141, A 0.106, I -0.231
H28: A 0.081, S -0.029, G -0.103, R 0.011, T -0.041, W -0.592, I -0.224, V -0.298, Y -0.489, M -0.065, P -0.912, C -0.205, Q 0.059, D -0.661, K 0.131, E 0.005
C26: L -0.792, T -0.921, K -0.834, Y -0.77, I -0.783, D -0.567, P -1, V -1.03, A -0.713, M -1.05, S -0.804, H -0.537, G -0.757, N -0.708, R -0.754, W -1.07
M41: Q 0.15, I -0.112, N 0.114, R 0.128, T 0.155, K 0.101, Y -0.173, G 0.202, H 0.043, A 0.178, C -0.004, V -0.008, E 0.135, P 0.059, F -0.2, L -0.076, D 0.094, W -0.035, S 0.156
V29: T -0.108, R -0.105, C -0.265, P -0.624, A -0.368, E -0.34, L -0.215, W -0.319, S -0.257, G -0.562, Q -0.311, I -0.453, D -0.414, F -0.54, K -0.109
E39: L -0.106, T 0.021, V -0.155, Q -0.012, F -0.213, H -0.167, W -0.249, N -0.081, C -0.27, M -0.143, P 0.029, R -0.111, A -0.09, K -0.021, S -0.09, G 0.024, D 0.03
C34: T -0.547, S -0.488, G -0.467, H -0.501, R -0.683, Y -0.875, K -0.623, M -0.881, E -0.312, P -0.174, W -1.02, N -0.536, Q -0.494, F -0.654, A -0.733
H38: C -0.774, Q -0.63, A -0.689, Y -0.721, D -0.482, R -0.699, F -0.59, S -0.614, I -0.881, T -0.639, K -0.707, V -0.803, G -0.536, W -1, L -1.14, P -0.611, N -0.76, E -0.46, M -0.89
Q40: G 0.129, P 0.005, C -0.139, A -0.094, H -0.031, W -0.542, S 0.023, L -0.452, E 0.107, F -0.54, N 0.036, T 0.068, V -0.32, R -0.022, D 0.043
P24: R -0.39, Q -0.099, T -0.324, N -0.233, V -0.774
F27: M -0.159, Q 0.059, P -0.62, T -0.068, E -0.184, K 0.108, L -0.02, S -0.11, I -0.571, W -0.147, R 0.005, D -0.004, V -0.536, H 0.155, G 0.115
L33: H -0.062, V -0.072, F -0.313, Y -0.088, T -0.026, P 0.084, I -0.158, D -0.148, W -0.262, K 0.138, E -0.073, M 0.033, S -0.065, N -0.116, C -0.213
I37: P -0.133, D -0.107, R -0.145, C -0.222, A -0.152, L -0.219, M -0.214, H -0.218, E -0.181, Q -0.077, F -0.412, N -0.269, Y -0.464, K -0.208, S -0.183, W -0.39
V25: A -0.136, S -0.225, Q -0.17, E -0.138, I -0.057, M -0.298, D -0.142, W -0.406, C -0.181, H -0.093, T -0.36, R -0.242, L -0.113, G -0.49, K -0.112, P -0.76, Y -0.221

Variants of: B2
Test: as above
Settings: Homo sapiens

Abundance fitness of substitutions, site by site:
V1: L -0.196, C -0.029, K -0.005, F -0.197, A -0.13, G -0.107, N -0.097, I 0.036, E -0.049, P -0.11, D -0.112, H -0.275, M -0.032
